According to patent US20200121803A1 (published 2020):

T1: human CD98 on the cell surface (human)
T1 chain: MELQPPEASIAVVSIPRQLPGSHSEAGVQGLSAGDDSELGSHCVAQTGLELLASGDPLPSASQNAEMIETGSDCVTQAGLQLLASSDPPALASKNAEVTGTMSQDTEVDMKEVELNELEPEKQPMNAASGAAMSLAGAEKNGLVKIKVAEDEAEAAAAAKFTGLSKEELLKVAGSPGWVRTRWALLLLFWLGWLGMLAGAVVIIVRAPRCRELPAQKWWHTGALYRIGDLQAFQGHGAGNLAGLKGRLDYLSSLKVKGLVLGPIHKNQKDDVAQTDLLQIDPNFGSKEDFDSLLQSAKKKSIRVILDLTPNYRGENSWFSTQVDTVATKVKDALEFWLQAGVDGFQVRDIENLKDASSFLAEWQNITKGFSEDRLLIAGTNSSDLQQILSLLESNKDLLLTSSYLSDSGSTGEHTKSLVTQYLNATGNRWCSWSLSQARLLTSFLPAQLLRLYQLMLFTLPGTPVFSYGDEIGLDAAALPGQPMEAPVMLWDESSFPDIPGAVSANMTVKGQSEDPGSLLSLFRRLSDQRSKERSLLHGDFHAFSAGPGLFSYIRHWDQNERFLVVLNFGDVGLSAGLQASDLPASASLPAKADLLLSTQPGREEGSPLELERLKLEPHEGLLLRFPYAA

T2: human CD98 on human cancer cell lines (EBC-1, H2170, Molt-4) (human)
T2 chain: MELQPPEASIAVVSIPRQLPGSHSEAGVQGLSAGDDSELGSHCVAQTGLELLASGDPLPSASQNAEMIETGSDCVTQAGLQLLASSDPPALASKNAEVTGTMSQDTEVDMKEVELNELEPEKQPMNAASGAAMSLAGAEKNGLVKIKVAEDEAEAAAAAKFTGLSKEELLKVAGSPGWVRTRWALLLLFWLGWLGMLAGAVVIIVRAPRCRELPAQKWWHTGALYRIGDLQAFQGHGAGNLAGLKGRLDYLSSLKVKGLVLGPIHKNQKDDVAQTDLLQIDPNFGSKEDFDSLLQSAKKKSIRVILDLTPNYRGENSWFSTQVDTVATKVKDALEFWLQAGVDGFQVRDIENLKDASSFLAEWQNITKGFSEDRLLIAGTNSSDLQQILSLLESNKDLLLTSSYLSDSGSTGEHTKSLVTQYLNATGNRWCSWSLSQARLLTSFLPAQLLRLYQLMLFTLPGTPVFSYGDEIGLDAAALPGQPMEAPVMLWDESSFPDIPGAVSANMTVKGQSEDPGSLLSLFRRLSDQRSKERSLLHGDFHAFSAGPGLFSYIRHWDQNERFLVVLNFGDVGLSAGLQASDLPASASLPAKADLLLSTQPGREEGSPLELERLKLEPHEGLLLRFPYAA


Target: T1, human CD98 on the cell surface
Assay: cell-based or functional assay

Row | ADC potency, IC50 (nM), H146 (SCLC) growth inhibition [nM] | ADC potency, IC50 (nM), H2170 (NSCLC) growth inhibition [nM] | ADC potency, IC50 (nM), MOLT4 (leukemia) growth inhibition [nM] | Binder
1 | 0.242 | 0.118 | 0.034 | ChAb12-CZ (other, synthon CZ on reduced interchain Cys of the constant regions (sites not numbered)) VH: EVQLVESGGGLVQPGRSLKLSCAASGFTFSDYAMAWVRQAPKKGLEWVASIIYDGRGTYYRDSVKGRFTISRDNAKSTLYLQMDSLRSEDTATYYCARQGDGTYYYWGSFDYWGQGVMVTVSS VL: DIVMTQSPSSLAVSAGETVTINCKSSQSLLSSGNQKNYLAWYQQKPGQSPKLLIYWASTRQSGVPDRFIGSGSGTDFTLTISSVQAEDLAIYHCQQYYDTPYTFGAGTKLELK
2 | 0.527 | 0.195 | 0.199 | ChAb11-CZ (other, synthon CZ on reduced interchain Cys of the constant regions (sites not numbered)) VH: EVQLVESGGGLVQPGRSLKLSCAASGFTFSDYAMAWVRQAPKKGLEWVAGIIYDGRGTYYRDSVKGRFTISRDNAKSTLYLQMDSLRSEDTATYYCARQGDGTYYYWGYFDYWGQGVMVTVSS VL: DIVMTQSPSSLAVSAGETVTINCRSSQSLLSSGNQKNYLAWYQQKPGQSPKLLIYWASTRQSGVPDRFIGSGSGTDFTLTISSVQAEDLAIYYCQQYYDTPYTFGAGTKLELK
3 | 0.209 | 0.09 | 0.035 | ChAb10-CZ (other, synthon CZ on reduced interchain Cys of the constant regions (sites not numbered)) VH: EVQLVESGGGLVQPGRSLKLSCAASGFTFSDYAMAWVRQAPKKSLEWVATIIYDGRGTYCRDSVKGRFTISRDNAKSTLYLQMDSLRSEDTATYYCARQGDGTYHYWGYFDYWGQGVMVTVSS VL: DIVMTQSPSSLAVSAGETVTINCKSSQSLLSSGNQKNYLAWYQQKPGQSPKLLIYWASTRQSGVPDRFIGSGSGTDFTLTISSVQAEDLAIYYCQQYYDTPYTFGAGTKVDLK
4 | 0.194 | 0.137 | 0.048 | ChAb15-CZ (other, synthon CZ on reduced interchain Cys of the constant regions (sites not numbered)) VH: EVQLVESGGGLVQPGRSLKLSCAASGFTFSDYTMAWVRQAPKKGLEWVATIIYDGRGTYYRDSVKGRFTISRDNAKSTLYLQMDSLRSEDTATYYCARQSDGTYYYWGYFDYWGQGVMVTVSS VL: DIVMTQSPSSLAVSAGETVTINCKSSQSLLFSGNQKNYLAWYQQKPGQSPKLLIYWASTRQSGVPDRFIGSGSGTDFTLTIRSVQAEDLAIYYCQQYYDSPYTFGAGTKLELK
5 | ~0.196 | 0.276 | 0.071 | ChAb1-CZ (other, synthon CZ on reduced interchain Cys of the constant regions (sites not numbered)) VH: EVKLVESGGGLVQPGGSLRLSCATSGFTFTDYYMSWVRQPPGKALEWLGFIRNPANVYTTEYSASVKGRFTISRDNSQSILYLQMNTLRAEDSATYYCARASYGNSEGWFAYWGQGTLVTVSA VL: DIVMSQSPSSLAVSVGEKVTMSCKSSQNLLYNNNQKNYLAWYQQKPGQSPKLLIYWASTRESGVPDRFTGSGSGTDFTLTISSVKAEDLAVYYCQQYYSYPRTFGGGTKLEIK
6 | ~0.188 | 0.161 | 0.029 | ChAb5-CZ (other, synthon CZ on reduced interchain Cys of the constant regions (sites not numbered)) VH: EVKLVESGGGLVQPGGSLRLSCATSGFTFTDYYMTWVRQPPGKALEWLGFIRNKANGYTTEYSASVKGRFTISRDNSLSILYLQMNTLRAEDSATYYCARASYVNSEGWFAYWGQGTLVTVSA VL: DIVMSQSPSSLAVSVGEKVTMSCKSSQSLLYSSNQKNYLAWYQQKLGQSPKLLIYWASTRESGVPDRFTGSGSGTDFTLTISSVKAEDLAVYYCQHYYSYPRTFGGGTKLEIK
7 | 0.255 | ~0.171 | 0.026 | ChAb3-CZ (other, synthon CZ on reduced interchain Cys of the constant regions (sites not numbered)) VH: EVKLVESGGGLVQPGNSLRLSCATSGFTFIDYYMSWVRQSPGKALEWLGFIRNKANGYTTEYSASVKGRFTISRDNSQSILYLQMDTLRAEDSATYYCTRDRPAWFVYWGQGTLVTVSA VL: DIVMSQSPSSLAVSVGEKVTMSCKSSQSLLYSSNQKNYLAWYQQKPGQSPKLLIYWASTRESGVPDRFTGSGSGTDFTLTFSSVRAEDLAVYYCQQYYSYPYTFGGGTKLEIK

Target: T2, human CD98 on human cancer cell lines …
Assay: cell-based or functional assay

Row | ADC potency, IC50 (nM), EBC (NSCLC), growth inhibition (CellTiter-Glo) [nM] | ADC potency, IC50 (nM), H2170 (NSCLC), growth inhibition (CellTiter-Glo) [nM] | ADC potency, IC50 (nM), MOLT4 (leukemia), growth inhibition (CellTiter-Glo) [nM] | Binder
8 | 271 | 0.273 | 0.046 | ChAb3-CZ-DAR2 (anti-CD98 chimeric chAb3 conjugated to Bcl-xL inhibitor synthon CZ, HIC-purified DAR2 species) (antibody, human IgG1, V domains shown, Bcl-xL inhibitor synthon CZ conjugated to cysteines of the TCEP-reduced antibody (Method H); positions not given; Bcl-xL inhibitor synthon CZ conjugated to cysteines of the TCEP-reduced antibody (Method H); DAR 2.0 by MS; positions not given) VH: EVKLVESGGGLVQPGNSLRLSCATSGFTFIDYYMSWVRQSPGKALEWLGFIRNKANGYTTEYSASVKGRFTISRDNSQSILYLQMDTLRAEDSATYYCTRDRPAWFVYWGQGTLVTVSA VL: DIVMSQSPSSLAVSVGEKVTMSCKSSQSLLYSSNQKNYLAWYQQKPGQSPKLLIYWASTRESGVPDRFTGSGSGTDFTLTFSSVRAEDLAVYYCQQYYSYPYTFGGGTKLEIK
